In US20180230457A1 (published 2018):

Experiments:
[1] = target: T1, bovine pancreatic RNase A (bovine, UniProt P61823 27-150); experiment: ITC, 25 C, no metal
T1 construct: mature; Commercial purified protein; Used unmodified in ITC and as plate coat; biotinylated only for phage selection
T1 sequence (looked up): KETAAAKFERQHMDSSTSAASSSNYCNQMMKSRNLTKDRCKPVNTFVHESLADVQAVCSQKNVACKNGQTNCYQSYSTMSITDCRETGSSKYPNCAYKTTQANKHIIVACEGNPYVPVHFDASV
Experimental: (§1) ITC experiments were performed using a MicroCal VP-ITC (MicroCal, LLC, Northampton, Mass.). All experiments were performed at 25° C. Proteins were dialyzed against the desired experimental buffer, which included PBS (20 mM NaPhosphate, 150 mM NaCl pH 7.4), TBS (20 mM Tris-HCl, 150 mM NaCl pH 7.4) and TBS-E (20 mM Tris, 150 mM NaCl, 1 mM EDTA, pH 7.4). For direct titration of NiCl₂ into the VHH-metal variant, concentrations were 2 mM and 200 μM for NiCl2 and VHH, respectively. Based on the observed binding constant, this corresponds to a “c-value” of 6.7, which is within the commonly acceptable range for the accurate determination of binding thermodynamics. For competitive titrations, nickel was included in TBS without EDTA at concentrations ranging from 0-10 mM. Competitive VHH/RNase A titration experiments with a “c” value greater than 10 included protein concentrations ranging from 30 μM to 205 μM. Conditions included a 10-fold higher concentration of titrant (VHH). […] These experiments included using a 100-fold higher concentration of titrant (RNase A) relative to VHH. RNase A concentrations were between 150 μM and 800 μM. […] For nickel/VHH titrations, the titrant nickel was dissolved in the appropriate dialysis buffer at a 10× concentration of the VHH. Experiments typically included 27, 10 μL injections with a 240 second delay between each injection. Dilution titrations indicated the absence of significant heats of dilution, consequently, no background dilution heat subtractions were necessary. The binding parameters (K, ΔH°, ΔS°, and n) were determined using the single site binding model using the ITC add-in in Origin version 7 (MicroCal LLC).

[2] = target: T1, bovine pancreatic RNase A; experiment: ITC, 25 C, RNase A binding with 1 mM nickel present
Experimental: (§2) The binding parameters (K, ΔH°, ΔS°, and n) were determined using the single site binding model using the ITC add-in in Origin version 7 (MicroCal LLC). All titrations indicated a 1:1 interaction with observed stoichiometries equal to 1.0 (within 5%).
(§3) ITC experiments were performed using a MicroCal VP-ITC (MicroCal, LLC, Northampton, Mass.). All experiments were performed at 25° C. Proteins were dialyzed against the desired experimental buffer, which included PBS (20 mM NaPhosphate, 150 mM NaCl pH 7.4), TBS (20 mM Tris-HCl, 150 mM NaCl pH 7.4) and TBS-E (20 mM Tris, 150 mM NaCl, 1 mM EDTA, pH 7.4). For direct titration of NiCl₂ into the VHHmetal variant, concentrations were 2 mM and 200 μM for NiCl₂ and VHH, respectively. Based on the observed binding constant, this corresponds to a “cvalue” of 6.7, which is within the commonly acceptable range for the accurate determination of binding thermodynamics (Tellinghuisen, 2008; Wiseman et al. 1989). For competitive titrations, nickel was included in TBS without EDTA at concentrations ranging from 0-10 mM. Competitive VHH/RNase A titration experiments with a “c” value greater than 10 included protein concentrations ranging from 30 μM to 205 μM. Conditions included a 10-fold higher concentration of titrant (VHH). […] These experiments included using a 100-fold higher concentration of titrant (RNase A) relative to VHH. RNase A concentrations were between 150 μM and 800 μM. Extinction coefficients were determined using values determined by the methods described by Pace, et. al. (1995). […] For nickel/VHH titrations, the titrant nickel was dissolved in the appropriate dialysis buffer at a 10× concentration of the VHH. Experiments typically included 27, 10 μL injections with a 240 second delay between each injection. Dilution titrations indicated the absence of significant heats of dilution, consequently, no background dilution heat subtractions were necessary. The binding parameters (K, ΔH°, ΔS°, and n) were determined using the single site binding model using the ITC add-in in Origin version 7 (MicroCal LLC).

[3] = target: T1, bovine pancreatic RNase A; experiment: ITC, 25 C, no metal, against wild-type VHH
Experimental: (§4) Isothermal titration calorimetry (ITC) was used to evaluate the thermodynamic basis for VHH-metal's dual function. […] As expected, titrations of nickel into wild-type anti-RNase A VHH produced no measurable binding.
(§5) ITC experiments were performed using a MicroCal VP-ITC (MicroCal, LLC, Northampton, Mass.). All experiments were performed at 25° C. Proteins were dialyzed against the desired experimental buffer, which included PBS (20 mM NaPhosphate, 150 mM NaCl pH 7.4), TBS (20 mM Tris-HCl, 150 mM NaCl pH 7.4) and TBS-E (20 mM Tris, 150 mM NaCl, 1 mM EDTA, pH 7.4). For direct titration of NiCl₂ into the VHH-metal variant, concentrations were 2 mM and 200 μM for NiCl2 and VHH, respectively. Based on the observed binding constant, this corresponds to a “c-value” of 6.7, which is within the commonly acceptable range for the accurate determination of binding thermodynamics. For competitive titrations, nickel was included in TBS without EDTA at concentrations ranging from 0-10 mM. Competitive VHH/RNase A titration experiments with a “c” value greater than 10 included protein concentrations ranging from 30 μM to 205 μM. Conditions included a 10-fold higher concentration of titrant (VHH).

[4] = target: T1, bovine pancreatic RNase A; experiment: ITC, 25 C, RNase A binding with 100 µM nickel present
[5] = target: T1, bovine pancreatic RNase A; experiment: ITC, 25 C, RNase A binding with 10 µM nickel present
Experimental: as §2, §3

[6] = target: T1, bovine pancreatic RNase A; experiment: competitive phage ELISA with and without 1 mM metals (Zn2+, Co2+, Ni2+)
[7] = target: T1, bovine pancreatic RNase A; experiment: ITC, 25 C, RNase A binding with 10 mM nickel present
Experimental: as §2, §3

[8] = target: T1, bovine pancreatic RNase A; experiment: ITC, 25 C, no metal; remark: listed apart in the source
Experimental: as §4, §5

[9] = target: T1, bovine pancreatic RNase A; experiment: ITC, 25 C, pH 7.4, no metal
Experimental: as §1

[10] = target: T1, bovine pancreatic RNase A; experiment: ITC, 25 C, RNase A binding with 1 µM nickel present
Experimental: as §2, §3

[11] = target: T1, bovine pancreatic RNase A; experiment: ITC, pH 5.5, acetate
[12] = target: T1, bovine pancreatic RNase A; experiment: ITC, pH 8, TRIS
[13] = target: T1, bovine pancreatic RNase A; experiment: ITC, pH 4.74, piperazine
[14] = target: T1, bovine pancreatic RNase A; experiment: ITC, pH 4.5, piperazine
[15] = target: T1, bovine pancreatic RNase A; experiment: ITC, pH 6, PBS
[16] = target: T1, bovine pancreatic RNase A; experiment: ITC, pH 7.4
[17] = target: T1, bovine pancreatic RNase A; experiment: ITC, pH 7.4, against wild-type VHH
[18] = target: T1, bovine pancreatic RNase A; experiment: ITC, pH profile 8.0 to 4.5
[19] = target: T1, bovine pancreatic RNase A; experiment: ITC, pH 7.4, PBS
[20] = target: T1, bovine pancreatic RNase A; experiment: ITC, pH 6.5, imidazole
[21] = target: T1, bovine pancreatic RNase A; experiment: ITC, pH 5, piperazine
[22] = target: T1, bovine pancreatic RNase A; experiment: ITC, pH 7, PBS

B1: wild-type anti-RNase A VHH (cAb-RN05) (VHH)
VHH: QVQLVESGGGLVQAGGSLRLSCAASGYAYTYIYMGWFRQAPGKEREGVAAMDSGGGGTLYADSVKGRFTISRDKGKNTVYLQMDSLKPEDTATYYCAAGGGYELRDRTYGQWGQGTQVTVSS
notes: Camelid single-domain antibody; Made in E. coli with an N-terminal hexa-His-TEV tag for ITC; also called VHH-wt; wt-VHH
-TΔS° [1]: 1.9 kcal/mol
Kd [1]: 19 nM
ΔG° [1]: -10.5 kcal/mol
ΔH° [1]: -12.4 kcal/mol
-TΔS° [2]: 0.9 kcal/mol
Kd [2]: 16 nM
ΔG° [2]: -10.6 kcal/mol
ΔH° [2]: -10.7 kcal/mol

B2: VHH-metal (metal sensitive anti-RNase A VHH) (VHH)
VHH: QVQLVESGGGLVQAGGSLRLSCAASGYPHPYLHMGWFRQAPGKEREGVAAMDSGGGGTLYADSVKGRFTISRDKGKNTVYLQMDSLKPEDTATYYCAAGGGYQLRDRTYGHWGQGTQVTVSS
notes: also called Metal-VHH; metal clone VHH
fold decrease in binding affinity against wild type [3]: ~8 fold
ΔΔG° [3]: 1.2 kcal/mol
-TΔS° [4]: -1 kcal/mol
Kd [4]: 900 nM
ΔG° [4]: -8.27 kcal/mol
ΔH° [4]: -7 kcal/mol
-TΔS° [2]: 0.09 kcal/mol
Kd [2]: 5640 nM
ΔG° [2]: -7.13 kcal/mol
ΔH° [2]: -7.2 kcal/mol
-TΔS° [5]: 3.6 kcal/mol
Kd [5]: 219 nM
ΔG° [5]: -9.1 kcal/mol
ΔH° [5]: -12.7 kcal/mol
fold change in IC50 [6]: 1000 fold
-TΔS° [7]: 1.3 kcal/mol
Kd [7]: 34000 nM
ΔG° [7]: -6.07 kcal/mol
ΔH° [7]: -7.3 kcal/mol
Kd [8]: 155 nM
-TΔS° [9]: 9 kcal/mol
Kd [9]: 157 nM
ΔG° [9]: -9.3 kcal/mol
ΔH° [9]: -17.8 kcal/mol
-TΔS° [10]: 8 kcal/mol
Kd [10]: 160 nM
ΔG° [10]: -9.27 kcal/mol
ΔH° [10]: -17.2 kcal/mol

B3: VHH#24 (pH clone #24) (VHH)
VHH: QVQLVESGGGLVQAGGSLRLSCAASGYHHTYIYMGWFRQAPGKEREGVAAMDSGGGGTLYADSVKGRFTISRDKGKNTVYLQMDSLKPEDTATYYCAAGGGHHLRDHTYGQWGQGTQVTVSS
Kd [11]: 6300 nM
ΔG [11]: -7.09 kcal/mol
ΔH [11]: 3 kcal/mol
-TΔS [12]: -3.8 kcal/mol
Kd [12]: 100 nM
ΔG [12]: -9.37 kcal/mol
ΔH [12]: -9 kcal/mol
-TΔS [13]: 6.8 kcal/mol
Kd [13]: 75000 nM
ΔG [13]: -5.62 kcal/mol
ΔH [13]: -12.4 kcal/mol
-TΔS [14]: 25.4 kcal/mol
ΔG [14]: -5.11 kcal/mol
ΔH [14]: -30 kcal/mol
-TΔS [15]: -8.6 kcal/mol
Kd [15]: 6500 nM
ΔG [15]: -7.07 kcal/mol
ΔH [15]: 1.5 kcal/mol
Kd [16]: 91 nM
fold difference of binding affinity from the wild-type value [17]: ≤ 5 fold
fold decrease of the observed binding constant on decreasing the pH [18]: ~10000 fold
-TΔS [19]: -2.5 kcal/mol
Kd [19]: 200 nM
ΔG [19]: -9.31 kcal/mol
ΔH [19]: -6.84 kcal/mol
Kd [20]: 400 nM
ΔG [20]: -8.73 kcal/mol
ΔH [20]: -9.44 kcal/mol
-TΔS [21]: -2.4 kcal/mol
Kd [21]: 12000 nM
ΔG [21]: -7.03 kcal/mol
ΔH [21]: -4.8 kcal/mol
-TΔS [22]: 0.7 kcal/mol
Kd [22]: 200 nM
ΔG [22]: -9.07 kcal/mol
ΔH [22]: -4.35 kcal/mol
